Common to all, as to test: Kinetic characterization (Km and kcat/Km of probe hydrolysis)
Assay type in all cases: biochemical
Holding throughout (conditions): other: caspase-1 added to increasing probe concentrations; initial velocities; nonlinear regression

Substrate in series [1]: CCN(CC)c1ccc2cc(C(=O)NNC(=O)[C@H](CC(=O)O)NC(=O)[C@@H]3CCCN4C(=O)CC[C@H](NC(=O)c5cc6ccc(O)cc6oc5=O)C(=O)N34)c(=O)oc2c1
Here is the method:
(§1) Km and kcat/Km values were determined using standard methods (Kindermann et al., 2010; Rozman Pungercar et al., 2003). Caspase-1 was added to increasing concentrations of the probe and initial velocities of probe hydrolysis were calculated from the slopes of the lines of the fluorescence increase. Km and kcat (Vmax) values were then determined by nonlinear regression analysis using the Prism program.

Substrate in series [2]: CCN(CC)c1ccc2cc(C(=O)NNC(=O)[C@H](CC(=O)O)NC(=O)[C@@H]3CCCN4C(=O)CC[C@H](NC(=O)c5cc6ccc(OC)cc6oc5=O)C(=O)N34)c(=O)oc2c1
Here is the method: as §1

Substrate in series [3]: CCN(CC)c1ccc2cc(C(=O)NNC(=O)[C@H](CC(=O)O)NC(=O)[C@@H]3CCCN4C(=O)CC[C@H](NC(=O)c5cc6cc(Br)c(O)cc6oc5=O)C(=O)N34)c(=O)oc2c1
The method, then:
as §1

B1: Caspase-1 (Homo sapiens) (protein)
chain 1: NPAMPTSSGSEGNVKLCSLEEAQRIWKQKSAEIYPIMDKSSRTRLALIICNEEFDSIPRRTGAEVDITGMTMLLQNLGYSVDVKKNLTASDMTTELEAFAHRPEHKTSDSTFLVFMSHGIREGICGKKHSEQVPDILQLNAIFNMLNTKNCPSLKDKPKVIIIQACRGDSPGVVWFKD
chain 2: AIKKAHIEKDFIAFCSSTPDNVSWRHPTMGSVFIGRLIEHMQEYACSCDVEEIFRKVRFSFEQPDGRAQMPTTERVTLTRCFYLFPGH
For B1, the Km in series [1] was 6.5 µM µM; in series [2] it was 4.2 µM µM; in series [3], 5.9 µM µM.
